In patent publication US20250270287A1 (KEROS THERAPEUTICS, published 2025):

T1: BMP-9 (UniProt Q9UK05 320-429)
T1 sequence (looked up): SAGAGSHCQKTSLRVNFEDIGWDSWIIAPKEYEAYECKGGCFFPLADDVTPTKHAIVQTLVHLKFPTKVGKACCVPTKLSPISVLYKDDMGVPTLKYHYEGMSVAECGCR

T2: GDF-11 (UniProt O95390 299-407)
T2 sequence (looked up): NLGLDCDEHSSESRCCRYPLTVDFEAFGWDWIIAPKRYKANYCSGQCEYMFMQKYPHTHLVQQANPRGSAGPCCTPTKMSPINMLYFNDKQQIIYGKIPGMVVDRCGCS

T3: Activin B (UniProt P09529 293-407)
T3 sequence (looked up): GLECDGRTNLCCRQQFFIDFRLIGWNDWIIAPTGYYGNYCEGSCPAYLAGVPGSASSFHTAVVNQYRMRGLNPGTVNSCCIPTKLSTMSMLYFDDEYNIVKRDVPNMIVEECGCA

T4: growth differentiation factor 8 (GDF-8) (UniProt O14793 267-375)
T4 construct: also called myostatin
T4 sequence (looked up): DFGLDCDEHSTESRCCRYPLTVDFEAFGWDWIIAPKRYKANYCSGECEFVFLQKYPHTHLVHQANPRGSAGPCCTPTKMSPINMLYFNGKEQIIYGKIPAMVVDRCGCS

T5: BMP-10 (UniProt O95393 317-424)
T5 sequence (looked up): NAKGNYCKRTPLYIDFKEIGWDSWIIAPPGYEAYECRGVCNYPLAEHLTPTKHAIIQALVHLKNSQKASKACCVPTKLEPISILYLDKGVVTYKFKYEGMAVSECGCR

T6: ActRIIB-A1 (SEQ ID NO: 120) chimera-Fc protein (Homo sapiens (Human), UniProt Q13705 28-134)
T6 construct: Tested as chimera-Fc protein; not shown: linker (if any) and Fc domain
T6 sequence: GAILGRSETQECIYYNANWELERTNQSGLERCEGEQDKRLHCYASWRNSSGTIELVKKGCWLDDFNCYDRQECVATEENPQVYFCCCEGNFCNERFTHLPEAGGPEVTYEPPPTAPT

B1: Activin A (ligand, UniProt P08476 311-426, looked up)
chain: GLECDGKVNICCKKQFFVSFKDIGWNDWIIAPSGYHANYCEGECPSHIAGTSGSSLSFHSTVINHYRMRGHSPFANLKSCCVPTKLRPMSMLYYDDGQNIIKKDIQNMIVEECGCS

What was measured:
Activin A [1] = molecular target: B1; assay: cell-based or functional assay
BMP-9 [2] = molecular target: T1, BMP-9; assay: cell-based or functional assay
GDF-11 [3] = molecular target: T2, GDF-11; assay: cell-based or functional assay
Activin B [4] = molecular target: T3, Activin B; assay: cell-based or functional assay
[5] = molecular target: T4, growth differentiation factor 8 (GDF-8); assay: SPR (Biacore 8K), Fc protein captured on anti-human IgG, ligand injected
Experimental: (§1) The Cytiva Biacore 8k was used to measure the kinetics of the interactions between the ActRII- and chimera-Fc proteins and Activin A/Activin B/growth differentiation factor 8 (GDF-8)/GDF-11/BMP-9/BMP-10. Series S CM4 Sensor Chips were immobilized with anti-human capture antibody using the reagents and protocol in the Biacore Human Antibody Capture Kit (GE Life Sciences). Briefly, anti-human IgG was diluted to 25 μg/mL in immobilization buffer. The carboxylated surface of the sensor was activated by injecting a mixture of EDC and NHS. The anti-human IgG was injected into the activated sensor chip flow cells at 10 μL/min for a total of 7 minutes until the chip reached an immobilization level of 3000 resonance units (RU). Ethanolamine was injected to deactivate the sensor surfaces. The chip has 8 flow cells to be used for binding analysis, each with an in-line reference surface to subtract instrument noise and non-specific binding to the sensor chip. The ActRII- and chimera-Fc proteins were captured in their own flow cell to allow for a maximum analyte binding response of 20-30 RU. This was done by injecting 10-20 μL of the ActRII- and chimera-Fc proteins into the flow cells at a concentration of 2 μg/mL until 60-90 RU was captured. Ligand at a single concentration was injected at […] for 60 seconds and then allowed to dissociate under buffer flow for no less than 5 minutes. After the cycle completed, captured protein was stripped from the chip with an injection of 3 M magnesium chloride, the regeneration buffer provided with the Biacore Human Antibody Capture Kit. Each ligand was injected in a concentration series, including a buffer only 0 nM concentration to serve as a double reference for subtracting out instrument noise. The data were analyzed using the Biacore Insight Evaluation Software.

Activin A [6] = molecular target: B1; assay: as above
Experimental: as §1

BMP-9 [7] = molecular target: T1, BMP-9; assay: as above
Experimental: as §1

GDF-11 [8] = molecular target: T2, GDF-11; assay: as above
Experimental: as §1

Activin B [9] = molecular target: T3, Activin B; assay: as above
Experimental: as §1

BMP-10 = molecular target: T5, BMP-10; assay: as above
Experimental: as §1

[10] = molecular target: T6, ActRIIB-A1 (SEQ ID NO: 120) chimera-Fc …; assay: as above
Experimental: as §1

Row | IC50, SBE-luciferase reporter in HEK293 cells (Activin A [1]) | IC50, BRE-luciferase reporter in C2C12 cells (BMP-9 [2]) | IC50, SBE-luciferase reporter in HEK293 cells (GDF-11 [3]) | IC50, SBE-luciferase reporter in HEK293 cells (Activin B [4]) | Kd [5] | Kd (Activin A [6]) | Kd (BMP-9 [7]) | Kd (GDF-11 [8]) | Kd (Activin B [9]) | Kd (BMP-10) | Kd [10] | Binder
1 | 0.075 µg/mL | 1.9 µg/mL | 0.18 µg/mL | 0.1 µg/mL | 0.229 nM | 0.04 nM | 8.1 nM | < 0.001 nM | < 0.001 nM | 0.0397 nM |  | ActRIIA-A8 (SEQ ID NO: 110) chimera-Fc protein (Fc fusion, Tested as chimera-Fc protein; not shown: linker (if any) and Fc domain) GAILGRSETQECLFFNANWEKDRTNQTGVEPCYGDKDKRRHCFATWKNISGSIEIVKQGCWLDDINCYDRTDCVEKKDSPEVYFCCCEGNMCNEKFSYFPEAGGPEVTYEPPPTAPT
2 | 0.64 µg/mL | 50 µg/mL | 0.24 µg/mL | 0.21 µg/mL | 0.203 nM | 0.0703 nM | 62 nM | < 0.001 nM | 0.0199 nM | 0.0663 nM |  | ActRIIA-A1 (SEQ ID NO: 104) chimera-Fc protein (Fc fusion, Tested as chimera-Fc protein; not shown: linker (if any) and Fc domain) GRGEAETRECLFFNANWEKDRTNQTGVEPCYGDKDKRRHCFATWKNISGSIEIVKQGCWLDDINCYDRTDCVEKKDSPEVYFCCCEGNMCNEKFSYFPEMEVTQPTS
3 |  |  |  |  |  |  |  |  |  |  | 0.0448 nM | B1
4 | 0.63 µg/mL | 12 µg/mL | 0.19 µg/mL | 0.24 µg/mL | 0.0977 nM | 0.0357 nM | 18 nM | < 0.001 nM | 0.0755 nM | 0.0289 nM |  | ActRIIA-A3 (SEQ ID NO: 106) chimera-Fc protein (Fc fusion, Tested as chimera-Fc protein; not shown: linker (if any) and Fc domain) GAILGRSETQECLFFNANWEKDRTNQTGVEPCEGEQDKRRHCFATWKNISGSIEIVKQGCWLDDINCYDRTDCVEKKDSPEVYFCCCEGNMCNEKFSYFPEMEVTQPTS
5 | 0.14 µg/mL | > 50 µg/mL | 0.13 µg/mL | 0.071 µg/mL | 0.0248 nM | 0.0256 nM | 13.6 nM | < 0.001 nM | < 0.001 nM | 0.0122 nM |  | ActRIIA-B3 (SEQ ID NO: 97) chimera-Fc protein (Fc fusion, Tested as chimera-Fc protein; not shown: linker (if any) and Fc domain) GAILGRSETQECLFFNANWEKDRTNQTGVEPCYGDKDKRLHCYASWRNSSGSIEIVKQGCWLDDINCYDRTDCVEKKDSPEVYFCCCEGNMCNEKFSYFPEMEVTQPTS
6 | 0.75 µg/mL | > 50 µg/mL | 0.26 µg/mL | 0.13 µg/mL | 0.125 nM | 0.024 nM | 32.9 nM | 3.43 nM | 0.00531 nM | 0.227 nM |  | ActRIIA-B1B4 (SEQ ID NO: 102) chimera-Fc protein (Fc fusion, Tested as chimera-Fc protein; also called ActRIIA-B1β4; not shown: linker (if any) and Fc domain) GAILGRSETQECIYYNANWEKDRTNQTGVEPCYGDKDKRRHCFATWKNISGTIELVKKGCWLDDINCYDRTDCVEKKDSPEVYFCCCEGNMCNEKFSYFPEMEVTQPTS
7 | 0.3 µg/mL | 4.2 µg/mL | 0.23 µg/mL | 0.073 µg/mL | 0.122 nM | 0.048 nM | 2.55 nM | 0.00665 nM | 0.0174 nM | 0.126 nM |  | ActRIIA-A5 (SEQ ID NO: 107) chimera-Fc protein (Fc fusion, Tested as chimera-Fc protein; not shown: linker (if any) and Fc domain) GAILGRSETQECLFFNANWEKDRTNQTGVEPCYGDKDKRRHCFATWKNISGSIEIVKQGCWLDDFNCYDRQECVEKKDSPEVYFCCCEGNMCNEKFSYFPEMEVTQPTS
8 | 0.33 µg/mL | 8.8 µg/mL | 0.077 µg/mL | 0.1 µg/mL | 0.0682 nM | 0.032 nM | 49.7 nM | < 0.001 nM | 0.0558 nM | 0.347 nM |  | ActRIIA-A6 (SEQ ID NO: 108) chimera-Fc protein (Fc fusion, Tested as chimera-Fc protein; not shown: linker (if any) and Fc domain) GAILGRSETQECLFFNANWEKDRTNQTGVEPCYGDKDKRRHCFATWKNISGSIEIVKQGCWLDDINCYDRTDCVEKEENPQVYFCCCEGNMCNEKFSYFPEMEVTQPTS
9 | 1.4 µg/mL | > 50 µg/mL | 0.39 µg/mL | 0.25 µg/mL | 0.0898 nM | 0.0217 nM | 77.2 nM | < 0.001 nM | 0.0249 nM | 0.2 nM |  | ActRIIA-B1B7 (SEQ ID NO: 101) chimera-Fc protein (Fc fusion, Tested as chimera-Fc protein; also called ActRIIA-B1β7; not shown: linker (if any) and Fc domain) GAILGRSETQECIYYNANWEKDRTNQTGVEPCYGDKDKRRHCFATWKNISGSIEIVKQGCWLDDINCYDRTDCVEKKDSPEVYFCCCEGNMCNERFTHLPEMEVTQPTS
10 | 0.32 µg/mL | > 50 µg/mL | 0.22 µg/mL | 0.094 µg/mL | 0.115 nM | 0.0186 nM | 13.6 nM | < 0.001 nM | < 0.001 nM | 0.046 nM |  | ActRIIA-B4 (SEQ ID NO: 98) chimera-Fc protein (Fc fusion, Tested as chimera-Fc protein; not shown: linker (if any) and Fc domain) GAILGRSETQECLFFNANWEKDRTNQTGVEPCYGDKDKRRHCFATWKNISGTIELVKKGCWLDDINCYDRTDCVEKKDSPEVYFCCCEGNMCNEKFSYFPEMEVTQPTS
11 | 0.84 µg/mL | 21 µg/mL | 0.23 µg/mL | 0.18 µg/mL | 0.0121 nM | 0.024 nM | 58.9 nM | < 0.001 nM | 0.00889 nM | 0.141 nM |  | ActRIIA-B7 (SEQ ID NO: 100) chimera-Fc protein (Fc fusion, Tested as chimera-Fc protein; not shown: linker (if any) and Fc domain) GAILGRSETQECLFFNANWEKDRTNQTGVEPCYGDKDKRRHCFATWKNISGSIEIVKQGCWLDDINCYDRTDCVEKKDSPEVYFCCCEGNMCNERFTHLPEMEVTQPTS
12 | 0.7 µg/mL | > 50 µg/mL | 0.29 µg/mL | 0.16 µg/mL | 0.0672 nM | 0.016 nM | 13.1 nM | < 0.001 nM | < 0.001 nM | 0.0605 nM |  | ActRIIA-B2B4 (SEQ ID NO: 103) chimera-Fc protein (Fc fusion, Tested as chimera-Fc protein; not shown: linker (if any) and Fc domain) GAILGRSETQECLEFNANWEKDRTNQSGLERCYGDKDKRRHCFATWKNISGTIELVKKGCWLDDINCYDRTDCVEKKDSPEVYFCCCEGNMCNEKFSYFPEMEVTQPTS
